Reference: patent publication US8703913B2, “Sensor” (Medical Research Council, priority 2008, dated 2014)

test: Screening mutant/fluorophore combinations for a fluorescence response to ADP; settings: ParM mutant/fluorophore combination

Molecule | Fluorescence change, ratio of the intensity in presence of 1 mM ADP to that in the absence of ADP
5-IATR-ParM (WT): wild-type ParM labeled with 5-IATR (conjugate, UniProt P11904 1-320, looked up, 5-IATR label) Plasmid segregation protein …: MLVFIDDGSTNIKLQWQESDGTIKQHISPNSFKREWAVSFGDKKVFNYTLNGEQYSFDPISPDAVVTTNIAWQYSDVNVVAVHHALLTSGLPVSEVDIVCTLPLTEYYDRNNQPNTENIERKKANFRKKITLNGGDTFTIKDVKVMPESIPAGYEVLQELDELDSLLIIDLGGTTLDISQVMGKLSGISKIYGDSSLGVSLVTSAVKDALSLARTKGSSYLADDIIIHRKDNNYLKQRINDENKISIVTEAMNEALRKLEQRVLNTLNEFSGYTHVMVIGGGAELICDAVKKHTQIRDERFFKTNNSQYDLVNGMYLIGN | 0.74
5-IATR-ParM (I27C) (conjugate, UniProt P11904 1-320, looked up, variant I27C, 5-IATR rhodamine label) Plasmid segregation protein …: MLVFIDDGSTNIKLQWQESDGTIKQHCSPNSFKREWAVSFGDKKVFNYTLNGEQYSFDPISPDAVVTTNIAWQYSDVNVVAVHHALLTSGLPVSEVDIVCTLPLTEYYDRNNQPNTENIERKKANFRKKITLNGGDTFTIKDVKVMPESIPAGYEVLQELDELDSLLIIDLGGTTLDISQVMGKLSGISKIYGDSSLGVSLVTSAVKDALSLARTKGSSYLADDIIIHRKDNNYLKQRINDENKISIVTEAMNEALRKLEQRVLNTLNEFSGYTHVMVIGGGAELICDAVKKHTQIRDERFFKTNNSQYDLVNGMYLIGN | 1.3
5-IATR-ParM (D58C) (conjugate, UniProt P11904 1-320, looked up, variant D58C, 5-IATR rhodamine label) Plasmid segregation protein …: MLVFIDDGSTNIKLQWQESDGTIKQHISPNSFKREWAVSFGDKKVFNYTLNGEQYSFCPISPDAVVTTNIAWQYSDVNVVAVHHALLTSGLPVSEVDIVCTLPLTEYYDRNNQPNTENIERKKANFRKKITLNGGDTFTIKDVKVMPESIPAGYEVLQELDELDSLLIIDLGGTTLDISQVMGKLSGISKIYGDSSLGVSLVTSAVKDALSLARTKGSSYLADDIIIHRKDNNYLKQRINDENKISIVTEAMNEALRKLEQRVLNTLNEFSGYTHVMVIGGGAELICDAVKKHTQIRDERFFKTNNSQYDLVNGMYLIGN | 0.83
5-IATR-ParM (D63C) (conjugate, UniProt P11904 1-320, looked up, variant D63C, 5-IATR rhodamine label) Plasmid segregation protein …: MLVFIDDGSTNIKLQWQESDGTIKQHISPNSFKREWAVSFGDKKVFNYTLNGEQYSFDPISPCAVVTTNIAWQYSDVNVVAVHHALLTSGLPVSEVDIVCTLPLTEYYDRNNQPNTENIERKKANFRKKITLNGGDTFTIKDVKVMPESIPAGYEVLQELDELDSLLIIDLGGTTLDISQVMGKLSGISKIYGDSSLGVSLVTSAVKDALSLARTKGSSYLADDIIIHRKDNNYLKQRINDENKISIVTEAMNEALRKLEQRVLNTLNEFSGYTHVMVIGGGAELICDAVKKHTQIRDERFFKTNNSQYDLVNGMYLIGN | 0.80
6-IATR-ParM (WT): wild-type ParM labeled with 6-IATR (conjugate, UniProt P11904 1-320, looked up, 6-IATR label) Plasmid segregation protein …: MLVFIDDGSTNIKLQWQESDGTIKQHISPNSFKREWAVSFGDKKVFNYTLNGEQYSFDPISPDAVVTTNIAWQYSDVNVVAVHHALLTSGLPVSEVDIVCTLPLTEYYDRNNQPNTENIERKKANFRKKITLNGGDTFTIKDVKVMPESIPAGYEVLQELDELDSLLIIDLGGTTLDISQVMGKLSGISKIYGDSSLGVSLVTSAVKDALSLARTKGSSYLADDIIIHRKDNNYLKQRINDENKISIVTEAMNEALRKLEQRVLNTLNEFSGYTHVMVIGGGAELICDAVKKHTQIRDERFFKTNNSQYDLVNGMYLIGN | 0.70
Alexa 488-ParM (I27C): ParM I27C/C287A labeled with AlexaFluor-488-maleimide (conjugate, UniProt P11904 1-320, looked up, variant I27C C287A, Alexa Fluor 488 label) Plasmid segregation protein …: MLVFIDDGSTNIKLQWQESDGTIKQHCSPNSFKREWAVSFGDKKVFNYTLNGEQYSFDPISPDAVVTTNIAWQYSDVNVVAVHHALLTSGLPVSEVDIVCTLPLTEYYDRNNQPNTENIERKKANFRKKITLNGGDTFTIKDVKVMPESIPAGYEVLQELDELDSLLIIDLGGTTLDISQVMGKLSGISKIYGDSSLGVSLVTSAVKDALSLARTKGSSYLADDIIIHRKDNNYLKQRINDENKISIVTEAMNEALRKLEQRVLNTLNEFSGYTHVMVIGGGAELIADAVKKHTQIRDERFFKTNNSQYDLVNGMYLIGN | 0.78
Cy3-ParM (I27C): ParM I27C/C287A labeled with Cy3-maleimide (conjugate, UniProt P11904 1-320, looked up, variant I27C C287A, Cy3-maleimide label) Plasmid segregation protein …: MLVFIDDGSTNIKLQWQESDGTIKQHCSPNSFKREWAVSFGDKKVFNYTLNGEQYSFDPISPDAVVTTNIAWQYSDVNVVAVHHALLTSGLPVSEVDIVCTLPLTEYYDRNNQPNTENIERKKANFRKKITLNGGDTFTIKDVKVMPESIPAGYEVLQELDELDSLLIIDLGGTTLDISQVMGKLSGISKIYGDSSLGVSLVTSAVKDALSLARTKGSSYLADDIIIHRKDNNYLKQRINDENKISIVTEAMNEALRKLEQRVLNTLNEFSGYTHVMVIGGGAELIADAVKKHTQIRDERFFKTNNSQYDLVNGMYLIGN | 1.2
Cy3b-ParM (I27C): ParM I27C/C287A labeled with Cy3B-maleimide (conjugate, UniProt P11904 1-320, looked up, variant I27C C287A, Cy3B label) Plasmid segregation protein …: MLVFIDDGSTNIKLQWQESDGTIKQHCSPNSFKREWAVSFGDKKVFNYTLNGEQYSFDPISPDAVVTTNIAWQYSDVNVVAVHHALLTSGLPVSEVDIVCTLPLTEYYDRNNQPNTENIERKKANFRKKITLNGGDTFTIKDVKVMPESIPAGYEVLQELDELDSLLIIDLGGTTLDISQVMGKLSGISKIYGDSSLGVSLVTSAVKDALSLARTKGSSYLADDIIIHRKDNNYLKQRINDENKISIVTEAMNEALRKLEQRVLNTLNEFSGYTHVMVIGGGAELIADAVKKHTQIRDERFFKTNNSQYDLVNGMYLIGN | 0.83
MIANS-ParM (WT): wild-type ParM labeled with MIANS (conjugate, UniProt P11904 1-320, looked up, MIANS label) Plasmid segregation protein …: MLVFIDDGSTNIKLQWQESDGTIKQHISPNSFKREWAVSFGDKKVFNYTLNGEQYSFDPISPDAVVTTNIAWQYSDVNVVAVHHALLTSGLPVSEVDIVCTLPLTEYYDRNNQPNTENIERKKANFRKKITLNGGDTFTIKDVKVMPESIPAGYEVLQELDELDSLLIIDLGGTTLDISQVMGKLSGISKIYGDSSLGVSLVTSAVKDALSLARTKGSSYLADDIIIHRKDNNYLKQRINDENKISIVTEAMNEALRKLEQRVLNTLNEFSGYTHVMVIGGGAELICDAVKKHTQIRDERFFKTNNSQYDLVNGMYLIGN | 0.50
MIANS-ParM (I27C): ParM I27C/C287A labeled with MIANS (conjugate, UniProt P11904 1-320, looked up, variant I27C C287A, MIANS label) Plasmid segregation protein …: MLVFIDDGSTNIKLQWQESDGTIKQHCSPNSFKREWAVSFGDKKVFNYTLNGEQYSFDPISPDAVVTTNIAWQYSDVNVVAVHHALLTSGLPVSEVDIVCTLPLTEYYDRNNQPNTENIERKKANFRKKITLNGGDTFTIKDVKVMPESIPAGYEVLQELDELDSLLIIDLGGTTLDISQVMGKLSGISKIYGDSSLGVSLVTSAVKDALSLARTKGSSYLADDIIIHRKDNNYLKQRINDENKISIVTEAMNEALRKLEQRVLNTLNEFSGYTHVMVIGGGAELIADAVKKHTQIRDERFFKTNNSQYDLVNGMYLIGN | 0.72
MIANS-ParM (S204C): ParM S204C/C287A labeled with MIANS (conjugate, UniProt P11904 1-320, looked up, variant S204C C287A, MIANS label) Plasmid segregation protein …: MLVFIDDGSTNIKLQWQESDGTIKQHISPNSFKREWAVSFGDKKVFNYTLNGEQYSFDPISPDAVVTTNIAWQYSDVNVVAVHHALLTSGLPVSEVDIVCTLPLTEYYDRNNQPNTENIERKKANFRKKITLNGGDTFTIKDVKVMPESIPAGYEVLQELDELDSLLIIDLGGTTLDISQVMGKLSGISKIYGDSSLGVSLVTCAVKDALSLARTKGSSYLADDIIIHRKDNNYLKQRINDENKISIVTEAMNEALRKLEQRVLNTLNEFSGYTHVMVIGGGAELIADAVKKHTQIRDERFFKTNNSQYDLVNGMYLIGN | 0.91
Acrylodan-ParM (WT): wild-type ParM labeled with acrylodan (conjugate, UniProt P11904 1-320, looked up, acrylodan label) Plasmid segregation protein …: MLVFIDDGSTNIKLQWQESDGTIKQHISPNSFKREWAVSFGDKKVFNYTLNGEQYSFDPISPDAVVTTNIAWQYSDVNVVAVHHALLTSGLPVSEVDIVCTLPLTEYYDRNNQPNTENIERKKANFRKKITLNGGDTFTIKDVKVMPESIPAGYEVLQELDELDSLLIIDLGGTTLDISQVMGKLSGISKIYGDSSLGVSLVTSAVKDALSLARTKGSSYLADDIIIHRKDNNYLKQRINDENKISIVTEAMNEALRKLEQRVLNTLNEFSGYTHVMVIGGGAELICDAVKKHTQIRDERFFKTNNSQYDLVNGMYLIGN | 0.59
MDCC-ParM (WT): wild-type ParM labeled with MDCC (conjugate, UniProt P11904 1-320, looked up, MDCC label) Plasmid segregation protein …: MLVFIDDGSTNIKLQWQESDGTIKQHISPNSFKREWAVSFGDKKVFNYTLNGEQYSFDPISPDAVVTTNIAWQYSDVNVVAVHHALLTSGLPVSEVDIVCTLPLTEYYDRNNQPNTENIERKKANFRKKITLNGGDTFTIKDVKVMPESIPAGYEVLQELDELDSLLIIDLGGTTLDISQVMGKLSGISKIYGDSSLGVSLVTSAVKDALSLARTKGSSYLADDIIIHRKDNNYLKQRINDENKISIVTEAMNEALRKLEQRVLNTLNEFSGYTHVMVIGGGAELICDAVKKHTQIRDERFFKTNNSQYDLVNGMYLIGN | 0.27
MDCC-ParM (D58C): ParM D58C/C287A labeled with MDCC (conjugate, UniProt P11904 1-320, looked up, variant D58C C287A, MDCC label) Plasmid segregation protein …: MLVFIDDGSTNIKLQWQESDGTIKQHISPNSFKREWAVSFGDKKVFNYTLNGEQYSFCPISPDAVVTTNIAWQYSDVNVVAVHHALLTSGLPVSEVDIVCTLPLTEYYDRNNQPNTENIERKKANFRKKITLNGGDTFTIKDVKVMPESIPAGYEVLQELDELDSLLIIDLGGTTLDISQVMGKLSGISKIYGDSSLGVSLVTSAVKDALSLARTKGSSYLADDIIIHRKDNNYLKQRINDENKISIVTEAMNEALRKLEQRVLNTLNEFSGYTHVMVIGGGAELIADAVKKHTQIRDERFFKTNNSQYDLVNGMYLIGN | 0.82
